The values that follow come from patent publication US20180296525A1, “TREATMENT OF AGE-RELATED MACULAR DEGENERATION AND OTHER EYE DISEASES WITH ONE OR MORE THERAPEUTIC AGENTS” (MacRegen, Inc., priority 2017, published 2018).

For data set [1], the system named is neutral lipids in and on the Bruch's membrane. In words: Oil red O staining of neutral lipids in and on the Bruch's membrane, geriatric macaques with age-related maculopathy. In kind it is in vivo, Macaca fascicularis. As to conditions: injected eyes after 6 monthly intravitreal injections (total 625 μg), compared to eyes injected with placebo. As for the experimental part: (§1) The macaque study was conducted according to accepted guidelines. […] One eye per animal received 6 monthly injections of the same escalating dosages of L-4F or scrambled L-4F (total of 625 μg) in a 50 μL volume. The second eye per animal was not injected and was just observed.
Clinical laboratory tests including serology, hemograms and liver enzymes were conducted, and ophthalmic examinations were also performed, including fundus photographs, optical coherence tomography (OCT), intraocular pressure testing and blood sampling. After 7 months, all animals were sacrificed and eyes were immediately prepared for histology. Histochemistry was performed with oil red O for neutral lipids and filipin for esterified cholesterol. […]
For staining with oil red O (ORO), specimens were treated with a 0.3% oil red O (Sigma-Aldrich Biochemie GmbH, Hamburg, Germany) solution (in 99% isopropanol) for 30 min at room temperature (RT), followed by immersion in a 60% isopropanol solution for 12 min. […] Image analysis was performed by grading the intensity of ORO staining (red color) of the Bruch's membrane (BrM) with scores ranging from 0 to 4, according to a qualitative evaluation assessed in four different regions in two separate slices from each eye (a total of 8 different regions from each eye). […]

The nature of data set [2]: Tolerability of intravitreal injections, macaque study. In kind it is in vivo, Macaca fascicularis. The conditions noted are these: 6 monthly intravitreal injections, all macaques; no significant adverse event or side effect. As for the experimental part: as §1
Clinical laboratory tests including serology, hemograms and liver enzymes were conducted, and ophthalmic examinations were also performed, including fundus photographs, optical coherence tomography (OCT), intraocular pressure testing and blood sampling. After 7 months, all animals were sacrificed and eyes were immediately prepared for histology. Histochemistry was performed with oil red O for neutral lipids and filipin for esterified cholesterol. Immunohistochemistry was performed against complement factor D (CFD) and the membrane attack complex (MAC, C5b-9), both being markers of activation of the alternative complement pathway.
Circulating hsCRP, which is mainly produced in the liver, is a non-specific marker for systemic inflammation.

The conditions of data set [3]: estimated; cited from earlier work.
The target in data set [4] is T1, complement factor D (CFD) (Homo sapiens, UniProt P00746).
T1 construct: host or cells: Endogenous CFD in the eyes of AMD patients
The conditions noted are these: patients, monthly intravitreal 10 mg in one eye for 18 months, injected eye, compared to placebo; cited from earlier work.

The conditions of data set [5]: without encapsulated cell technology; cited from earlier work.

T1 sequence (P00746 26-253): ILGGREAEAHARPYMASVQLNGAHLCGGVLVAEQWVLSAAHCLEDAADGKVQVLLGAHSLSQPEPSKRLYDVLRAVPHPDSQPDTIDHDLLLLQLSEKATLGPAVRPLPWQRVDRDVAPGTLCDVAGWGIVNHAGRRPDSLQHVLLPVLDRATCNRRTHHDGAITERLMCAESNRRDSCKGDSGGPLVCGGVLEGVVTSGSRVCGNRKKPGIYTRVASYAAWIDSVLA

For the molecule “Ac-DWFKAFYDKVAEKFKEAF-NH2 [L-4F, Ac-DWFKAFYDKVAEKFKEAF-NH2 acetate salt]”, in data set [1], the “reduction of lipid deposits from the BrM (oil red O staining)” value is “about 56%”. Further, the tolerability result in data set [2] is recorded as “well tolerated”.

Take “aflibercept: soluble fusion protein containing extracellular domains of VEGFRs; anti-VEGF agent”: the intravitreal half-life entry in data set [3] is “about 9.0 days”.

As to bevacizumab: anti-VEGF antibody, in data set [3], the intravitreal half-life result is “about 9.8 days”.

On to “lampalizumab: antigen-binding fragment (Fab) of a humanized monoclonal antibody targeting complement factor D (CFD)”, for which the “reduction in the rate of GA enlargement, and hence the area of GA” value in data set [4] was “about 20%”.

“ranibizumab: anti-VEGF antibody fragment”: in data set [3], the intravitreal half-life result is on record as “about 7.1 days”.

B1: CNTF: ciliary neurotrophic factor, an endogenous neuroprotector (protein, UniProt P26441 1-200, looked up)
Ciliary neurotrophic factor: MAFTEHSPLTPHRRDLCSRSIWLARKIRSDLTALTESYVKHQGLNKNINLDSADGMPVASTDQWSELTEAERLQENLQAYRTFHVLLARLLEDQQVHFTPTEGDFHQAIHTLLLQVAAFAYQIEELMILLEYKIPRNEADGMPINVGDGGLFEKKLWGLKVLQELSQWTVRSIHDLRFISSHQTGIPARGSHYIANNKKM
In the case of B1, the “half-life of CNTF” value in data set [5] is 1 to 3 min.
